Blank lines part the entries; values can stand above or below the molecule they belong to.
Assays:
Assay in all cases: ITC
T-Mod(Dss1A) = T-Mod(Dss1A) (UniProt P31948)
T-Mod(Dss1B) = T-Mod(Dss1B) (UniProt P31948)
the T-Mods = biological target: the T-Mods

Kd (T-Mod(Dss1A)): 157 µM | stoichiometry N (T-Mod(Dss1A)): 0.8 | Kd (T-Mod(Dss1B)): 665 µM
Molecule: Dss1-C19 peptide mutant R57A (from UniProt P60896 52-70)

Kd (T-Mod(Dss1A)): 20.2 µM | stoichiometry N (T-Mod(Dss1A)): 0.8 | Kd (T-Mod(Dss1B)): 18.6 µM | stoichiometry N (T-Mod(Dss1B)): 1.1
Molecule: Dss1-C19 peptide (from UniProt P60896 52-70)

Kd (the T-Mods): 175 µM
B1: Sem1 (natural protein)
chain: MSTDVAAAQAQSKIDLTKKKNEEINKKSLEEDDEFEDFPIDTWANGETIKSNAVTQTNIWEENWDDVEVDDDFTNELKAELDRYKRENQ
